According to US20160250307A1 (IMMATICS BIOTECHNOLOGIES, published 2016):

Assays:
HLA-A*02 [1] = biological target: HLA-A*02 (human); test: UV-ligand exchange, anti-b2m ELISA; grade: exchange yield >=75%
HLA-A*02 [2] = biological target: HLA-A*02 (human); test: UV-ligand exchange, anti-b2m ELISA; grade: exchange yield >=20%

B1: RIAGIRGIQGV (peptide)
peptide: RIAGIRGIQGV
peptide exchange yield (HLA-A*02 [1]): ≥ 75%

B2: ALNAVRLLV (peptide)
peptide: ALNAVRLLV
peptide exchange yield (HLA-A*02 [1]): ≥ 75%

B3: ILADLNLSV (peptide)
peptide: ILADLNLSV
peptide exchange yield (HLA-A*02 [1]): ≥ 75%

B4: ALPTVLVGV (peptide)
peptide: ALPTVLVGV
peptide exchange yield (HLA-A*02 [1]): ≥ 75%

B5: KLYQEVEIASV (peptide)
peptide: KLYQEVEIASV
peptide exchange yield (HLA-A*02 [1]): ≥ 75%

B6: GLAFSLNGV (peptide)
peptide: GLAFSLNGV
peptide exchange yield (HLA-A*02 [1]): ≥ 75%

B7: RLLAKIICL (peptide)
peptide: RLLAKIICL
peptide exchange yield (HLA-A*02 [2]): 20 to 50%

B8: SLVGDIGNVNM (peptide)
peptide: SLVGDIGNVNM
peptide exchange yield (HLA-A*02 [2]): 20 to 50%

B9: RLIDRIKTV (peptide)
peptide: RLIDRIKTV
peptide exchange yield (HLA-A*02 [2]): 20 to 50%

B10: ALTSVVVTL (peptide)
peptide: ALTSVVVTL
peptide exchange yield (HLA-A*02 [1]): ≥ 75%

B11: VMQDPEFLQSV (peptide)
peptide: VMQDPEFLQSV
peptide exchange yield (HLA-A*02 [1]): ≥ 75%

B12: RLIEEIKNV (peptide)
peptide: RLIEEIKNV
peptide exchange yield (HLA-A*02 [2]): 20 to 50%

B13: GLLSGLDIMEV (peptide)
peptide: GLLSGLDIMEV
peptide exchange yield (HLA-A*02 [1]): ≥ 75%

B14: ALLETNPYLL (peptide)
peptide: ALLETNPYLL
peptide exchange yield (HLA-A*02 [1]): ≥ 75%

B15: ALLELDEPLVL (peptide)
peptide: ALLELDEPLVL
peptide exchange yield (HLA-A*02 [1]): ≥ 75%

B16: KQMEPLHAV (peptide)
peptide: KQMEPLHAV
peptide exchange yield (HLA-A*02 [2]): 20 to 50%

B17: ALAEALKEV (peptide)
peptide: ALAEALKEV
peptide exchange yield (HLA-A*02 [1]): ≥ 75%

B18: YLGEEYVKA (peptide)
peptide: YLGEEYVKA
peptide exchange yield (HLA-A*02 [2]): 20 to 50%

B19: RLYTMDGITV (peptide)
peptide: RLYTMDGITV
peptide exchange yield (HLA-A*02 [2]): 20 to 50%

B20: KIAELLENV (peptide)
peptide: KIAELLENV
peptide exchange yield (HLA-A*02 [1]): ≥ 75%

B21: LLIDVVTYL (peptide)
peptide: LLIDVVTYL
peptide exchange yield (HLA-A*02 [1]): ≥ 75%

B22: VLIGSNHSL (peptide)
peptide: VLIGSNHSL
peptide exchange yield (HLA-A*02 [1]): ≥ 75%

B23: YIHNILYEV (peptide)
peptide: YIHNILYEV
peptide exchange yield (HLA-A*02 [1]): ≥ 75%

B24: LIGEFLEKV (peptide)
peptide: LIGEFLEKV
peptide exchange yield (HLA-A*02 [1]): ≥ 75%

B25: FLIAEYFEHV (peptide)
peptide: FLIAEYFEHV
peptide exchange yield (HLA-A*02 [2]): 20 to 50%

B26: KLGAVFNQV (peptide)
peptide: KLGAVFNQV
peptide exchange yield (HLA-A*02 [1]): ≥ 75%

B27: AVIGGLIYV (peptide)
peptide: AVIGGLIYV
peptide exchange yield (HLA-A*02 [1]): ≥ 75%

B28: KLSNVLQQV (peptide)
peptide: KLSNVLQQV
peptide exchange yield (HLA-A*02 [1]): ≥ 75%

B29: ALSQVTLLL (peptide)
peptide: ALSQVTLLL
peptide exchange yield (HLA-A*02 [1]): ≥ 75%

B30: ALYGRLEVV (peptide)
peptide: ALYGRLEVV
peptide exchange yield (HLA-A*02 [1]): ≥ 75%

B31: TLPDFRLPEI (peptide)
peptide: TLPDFRLPEI
peptide exchange yield (HLA-A*02 [1]): ≥ 75%

B32: YLSQAADGAKVL (peptide)
peptide: YLSQAADGAKVL
peptide exchange yield (HLA-A*02 [2]): 20 to 50%

B33: ILSPLSVAL (peptide)
peptide: ILSPLSVAL
peptide exchange yield (HLA-A*02 [1]): ≥ 75%

B34: FVLPLLGLHEA (peptide)
peptide: FVLPLLGLHEA
peptide exchange yield (HLA-A*02 [2]): 20 to 50%

B35: LLLDKLILL (peptide)
peptide: LLLDKLILL
peptide exchange yield (HLA-A*02 [1]): ≥ 75%

B36: VLMDKLVEL (peptide)
peptide: VLMDKLVEL
peptide exchange yield (HLA-A*02 [1]): ≥ 75%

B37: RLFNDPVAMV (peptide)
peptide: RLFNDPVAMV
peptide exchange yield (HLA-A*02 [1]): ≥ 75%

B38: KLLDNWDSV (peptide)
peptide: KLLDNWDSV
peptide exchange yield (HLA-A*02 [1]): ≥ 75%

B39: AMPPPPPQGV (peptide)
peptide: AMPPPPPQGV
peptide exchange yield (HLA-A*02 [2]): 20 to 50%

B40: KVLDKVFRA (peptide)
peptide: KVLDKVFRA
peptide exchange yield (HLA-A*02 [1]): ≥ 75%

B41: KLLDLETERILL (peptide)
peptide: KLLDLETERILL
peptide exchange yield (HLA-A*02 [1]): ≥ 75%

B42: TLITDGMRSV (peptide)
peptide: TLITDGMRSV
peptide exchange yield (HLA-A*02 [2]): 20 to 50%

B43: ALLEADVNIKL (peptide)
peptide: ALLEADVNIKL
peptide exchange yield (HLA-A*02 [1]): ≥ 75%

B44: YLYNNEEQVGL (peptide)
peptide: YLYNNEEQVGL
peptide exchange yield (HLA-A*02 [2]): 20 to 50%

B45: ALQDQLVLV (peptide)
peptide: ALQDQLVLV
peptide exchange yield (HLA-A*02 [1]): ≥ 75%

B46: LLLGERVAL (peptide)
peptide: LLLGERVAL
peptide exchange yield (HLA-A*02 [1]): ≥ 75%

B47: GLSNLGIKSI (peptide)
peptide: GLSNLGIKSI
peptide exchange yield (HLA-A*02 [1]): ≥ 75%

B48: ALLGKLDAI (peptide)
peptide: ALLGKLDAI
peptide exchange yield (HLA-A*02 [1]): ≥ 75%

B49: RLMSALTQV (peptide)
peptide: RLMSALTQV
peptide exchange yield (HLA-A*02 [2]): 20 to 50%

B50: YLEPYLKEV (peptide)
peptide: YLEPYLKEV
peptide exchange yield (HLA-A*02 [1]): ≥ 75%

B51: RVPPPPQSV (peptide)
peptide: RVPPPPQSV
peptide exchange yield (HLA-A*02 [2]): 20 to 50%

B52: RIISGLVKV (peptide)
peptide: RIISGLVKV
peptide exchange yield (HLA-A*02 [2]): 20 to 50%

B53: KIADFELPTI (peptide)
peptide: KIADFELPTI
peptide exchange yield (HLA-A*02 [1]): ≥ 75%

B54: NLAEVVERV (peptide)
peptide: NLAEVVERV
peptide exchange yield (HLA-A*02 [1]): ≥ 75%

B55: RLIDLHTNV (peptide)
peptide: RLIDLHTNV
peptide exchange yield (HLA-A*02 [1]): ≥ 75%

B56: TLGQIWDV (peptide)
peptide: TLGQIWDV
peptide exchange yield (HLA-A*02 [1]): ≥ 75%

B57: ALTSISAGV (peptide)
peptide: ALTSISAGV
peptide exchange yield (HLA-A*02 [1]): ≥ 75%

B58: FLWTEQAHTV (peptide)
peptide: FLWTEQAHTV
peptide exchange yield (HLA-A*02 [2]): 20 to 50%

B59: KLFEEIREI (peptide)
peptide: KLFEEIREI
peptide exchange yield (HLA-A*02 [1]): ≥ 75%

B60: AMGEKSFSV (peptide)
peptide: AMGEKSFSV
peptide exchange yield (HLA-A*02 [1]): ≥ 75%

B61: RIPAYFVTV (peptide)
peptide: RIPAYFVTV
peptide exchange yield (HLA-A*02 [2]): 20 to 50%

B62: GLFAPLVFL (peptide)
peptide: GLFAPLVFL
peptide exchange yield (HLA-A*02 [1]): ≥ 75%

B63: QLIEVSSPITL (peptide)
peptide: QLIEVSSPITL
peptide exchange yield (HLA-A*02 [1]): ≥ 75%

B64: KIQEILTQV (peptide)
peptide: KIQEILTQV
peptide exchange yield (HLA-A*02 [1]): ≥ 75%

B65: WLIEDGKVVTV (peptide)
peptide: WLIEDGKVVTV
peptide exchange yield (HLA-A*02 [1]): ≥ 75%

B66: LLFPHPVNQV (peptide)
peptide: LLFPHPVNQV
peptide exchange yield (HLA-A*02 [1]): ≥ 75%

B67: LTDITKGV (peptide)
peptide: LTDITKGV
peptide exchange yield (HLA-A*02 [2]): 20 to 50%

B68: RVIEHVEQV (peptide)
peptide: RVIEHVEQV
peptide exchange yield (HLA-A*02 [1]): ≥ 75%

B69: NLIDLDDLYV (peptide)
peptide: NLIDLDDLYV
peptide exchange yield (HLA-A*02 [1]): ≥ 75%

B70: ALDAGAVYTL (peptide)
peptide: ALDAGAVYTL
peptide exchange yield (HLA-A*02 [1]): ≥ 75%

B71: ALQDAIRQL (peptide)
peptide: ALQDAIRQL
peptide exchange yield (HLA-A*02 [1]): ≥ 75%

B72: KLLDEVTYLEA (peptide)
peptide: KLLDEVTYLEA
peptide exchange yield (HLA-A*02 [1]): ≥ 75%

B73: RLFADILNDV (peptide)
peptide: RLFADILNDV
peptide exchange yield (HLA-A*02 [1]): ≥ 75%

B74: KLLDTMVDTFL (peptide)
peptide: KLLDTMVDTFL
peptide exchange yield (HLA-A*02 [1]): ≥ 75%
